Test results as given in publication PMC12117036.

Molecular target: rhodamine-labeled rabbit skeletal muscle actin (rabbit) (UniProt P68135)

Sequence of espin (ectoplasmic specialization protein), recombinant protein (B1AK53 whole entry): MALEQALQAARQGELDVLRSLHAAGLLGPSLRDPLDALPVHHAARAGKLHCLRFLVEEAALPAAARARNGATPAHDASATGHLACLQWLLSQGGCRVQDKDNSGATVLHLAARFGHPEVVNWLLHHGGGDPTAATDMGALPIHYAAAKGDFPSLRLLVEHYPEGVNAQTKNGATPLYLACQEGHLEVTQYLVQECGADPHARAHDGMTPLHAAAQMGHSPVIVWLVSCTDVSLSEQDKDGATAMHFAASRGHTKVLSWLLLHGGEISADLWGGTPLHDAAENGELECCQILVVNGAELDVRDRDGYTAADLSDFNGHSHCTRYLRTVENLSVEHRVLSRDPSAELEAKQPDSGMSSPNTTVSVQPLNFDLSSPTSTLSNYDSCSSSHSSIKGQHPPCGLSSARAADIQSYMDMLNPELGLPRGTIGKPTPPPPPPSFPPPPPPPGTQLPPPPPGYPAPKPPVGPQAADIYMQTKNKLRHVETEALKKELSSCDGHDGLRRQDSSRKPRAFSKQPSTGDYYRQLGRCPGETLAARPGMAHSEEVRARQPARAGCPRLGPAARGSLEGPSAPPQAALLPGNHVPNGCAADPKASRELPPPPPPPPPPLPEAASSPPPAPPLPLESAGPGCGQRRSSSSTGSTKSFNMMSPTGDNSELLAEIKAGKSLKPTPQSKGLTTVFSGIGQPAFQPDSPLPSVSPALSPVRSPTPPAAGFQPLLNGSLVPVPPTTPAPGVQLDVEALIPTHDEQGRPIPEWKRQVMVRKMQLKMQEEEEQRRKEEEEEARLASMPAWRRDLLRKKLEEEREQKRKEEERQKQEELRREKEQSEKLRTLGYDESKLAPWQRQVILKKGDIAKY

In the case of “espin (ectoplasmic specialization protein), recombinant protein (from UniProt B1AK53 1-854) (natural protein)”, the minimum concentration of purified espin at which bundling of pre-polymerized rhodamine-actin filaments (3 uM) was seen by confocal imaging (Fig. 4L) was 100 nM.
